Where “and” joins values, the source holds several entries; their conditions need not be identical. Identical values can stand only once.
T1: Mer3-Strep (full-length S. cerevisiae Mer3 with C-terminal 2xStrep-II tag) (S. cerevisiae, UniProt P51979 1-1187, phosphorylated in insect cells; high-confidence sites S17, S80, T100, S398, S958, T1092)
T1 sequence (looked up): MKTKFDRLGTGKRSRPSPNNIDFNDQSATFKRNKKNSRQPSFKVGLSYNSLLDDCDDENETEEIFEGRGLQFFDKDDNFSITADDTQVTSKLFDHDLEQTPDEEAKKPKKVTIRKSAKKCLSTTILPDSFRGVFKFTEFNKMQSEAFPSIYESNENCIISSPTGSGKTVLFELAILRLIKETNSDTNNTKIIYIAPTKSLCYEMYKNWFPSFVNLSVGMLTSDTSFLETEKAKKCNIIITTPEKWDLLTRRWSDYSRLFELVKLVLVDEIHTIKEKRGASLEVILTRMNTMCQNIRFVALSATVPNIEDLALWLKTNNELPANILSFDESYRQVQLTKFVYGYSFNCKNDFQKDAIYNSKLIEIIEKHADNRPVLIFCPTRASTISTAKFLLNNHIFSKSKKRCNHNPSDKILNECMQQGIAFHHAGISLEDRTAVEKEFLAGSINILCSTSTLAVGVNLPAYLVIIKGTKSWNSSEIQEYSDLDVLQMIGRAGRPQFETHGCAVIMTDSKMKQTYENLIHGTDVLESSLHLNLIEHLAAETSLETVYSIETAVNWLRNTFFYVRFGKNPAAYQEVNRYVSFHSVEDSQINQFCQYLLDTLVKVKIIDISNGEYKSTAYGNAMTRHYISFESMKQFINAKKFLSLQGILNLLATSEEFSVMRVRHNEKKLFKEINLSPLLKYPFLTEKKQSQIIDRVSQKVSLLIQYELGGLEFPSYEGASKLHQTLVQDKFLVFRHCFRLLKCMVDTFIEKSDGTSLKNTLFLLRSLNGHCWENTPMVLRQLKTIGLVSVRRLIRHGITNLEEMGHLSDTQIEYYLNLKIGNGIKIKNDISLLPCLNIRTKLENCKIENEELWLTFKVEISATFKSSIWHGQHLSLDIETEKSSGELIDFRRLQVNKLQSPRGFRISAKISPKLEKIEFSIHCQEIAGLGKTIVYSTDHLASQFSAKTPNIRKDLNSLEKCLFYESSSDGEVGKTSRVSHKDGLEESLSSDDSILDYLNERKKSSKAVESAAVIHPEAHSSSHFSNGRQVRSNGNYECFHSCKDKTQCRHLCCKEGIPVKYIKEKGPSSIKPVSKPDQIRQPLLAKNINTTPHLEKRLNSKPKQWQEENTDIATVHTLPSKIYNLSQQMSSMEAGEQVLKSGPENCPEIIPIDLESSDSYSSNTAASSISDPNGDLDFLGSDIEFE

B1: Top3, untagged (chain of the Top3/Rmi1 complex) (enzyme, S. cerevisiae, UniProt P13099 1-656, looked up)
chain: MKVLCVAEKNSIAKAVSQILGGGRSTSRDSGYMYVKNYDFMFSGFPFARNGANCEVTMTSVAGHLTGIDFSHDSHGWGKCAIQELFDAPLNEIMNNNQKKIASNIKREARNADYLMIWTDCDREGEYIGWEIWQEAKRGNRLIQNDQVYRAVFSHLERQHILNAARNPSRLDMKSVHAVGTRIEIDLRAGVTFTRLLTETLRNKLRNQATMTKDGAKHRGGNKNDSQVVSYGTCQFPTLGFVVDRFERIRNFVPEEFWYIQLVVENKDNGGTTTFQWDRGHLFDRLSVLTFYETCIETAGNVAQVVDLKSKPTTKYRPLPLTTVELQKNCARYLRLNAKQSLDAAEKLYQKGFISYPRTETDTFPHAMDLKSLVEKQAQLDQLAAGGRTAWASYAASLLQPENTSNNNKFKFPRSGSHDDKAHPPIHPIVSLGPEANVSPVERRVYEYVARHFLACCSEDAKGQSMTLVLDWAVERFSASGLVVLERNFLDVYPWARWETTKQLPRLEMNALVDIAKAEMKAGTTAPPKPMTESELILLMDTNGIGTDATIAEHIDKIQVRNYVRSEKVGKETYLQPTTLGVSLVHGFEAIGLEDSFAKPFQRREMEQDLKKICEGHASKTDVVKDIVEKYRKYWHKTNACKNTLLQVYDRVKASM
notes: Top3 (type IA topoisomerase), S. cerevisiae, from SK1 strain genomic DNA; untagged; Same chain as in m10 and m11; source: Hi5 insect cells (co-expressed with GST-Rmi1), purified with Rmi1

Experiments:
[1] = biological target: Mer3-Strep (full-length S. cerevisiae Mer3 with C-terminal 2xStrep-II tag) (S. cerevisiae) (UniProt P51979); test: SEC-MALS; full-length Mer3, 10 μM at injection, Superose 6 5/150; 30 mM HEPES pH 6.8, 300 mM NaCl, 1 mM MgCl2, 5 μM ZnCl2, 1 mM TCEP
[2] = biological target: T1, Mer3-Strep (full-length S. cerevisiae …); test: pull-down; Mer3-Strep (0.7 μM) held by anti-Strep antibody and protein G beads (the legend says StrepTactin pulldown), His-Top3 1.3 μM; 25 mM HEPES pH 7.5, 5% glycerol, 50 mM NaCl, 1 mM TCEP, 0.1% Tween-20; western blot; conditions: both partners purified
[3] = biological target: T1, Mer3-Strep (full-length S. cerevisiae …); test: MST; 45 nM RED-NHS labelled Mer3, partner titrated; 50 mM Tris–HCl pH 7.4, 150 mM NaCl, 10 mM MgCl2, 0.05% Tween-20; 25°C; triplicates; conditions: both partners purified
[4] = biological target: T1, Mer3-Strep (full-length S. cerevisiae …); test: cross-linking; XL-MS with DSBU, proteins 3 μM, 1 h at 25°C; 30 mM HEPES 6.8, 150 mM NaCl, 5% glycerol, 1 mM MgCl2, 1 mM TCEP; samples: Mer3, Mlh1/Mlh2, Mer3/Mlh1/Mlh2, Top3/Rmi1, Mer3/Top3/Rmi1; conditions: both partners purified
[5] = biological target: B1; test: as above; conditions: both partners purified

Row | Kd [3] | binding result [4] | Molecule | also measured
1 |  |  | Mer3-Strep (full-length S. cerevisiae Mer3 with C-terminal 2xStrep-II tag) (from UniProt P51979 1-1187) (enzyme) | stoichiometry N [1]: 2
2 |  |  | His-Top3 (enzyme, S. cerevisiae, UniProt P13099 1-656, looked up, Top3 (type IA topoisomerase), S. cerevisiae, from SK1 strain genomic DNA; also called His-tagged Top3; source: Hi5 insect cells, purified (TALON, heparin, ResourceS, SEC); not shown: His6, N-terminal, kept) MKVLCVAEKNSIAKAVSQILGGGRSTSRDSGYMYVKNYDFMFSGFPFARNGANCEVTMTSVAGHLTGIDFSHDSHGWGKCAIQELFDAPLNEIMNNNQKKIASNIKREARNADYLMIWTDCDREGEYIGWEIWQEAKRGNRLIQNDQVYRAVFSHLERQHILNAARNPSRLDMKSVHAVGTRIEIDLRAGVTFTRLLTETLRNKLRNQATMTKDGAKHRGGNKNDSQVVSYGTCQFPTLGFVVDRFERIRNFVPEEFWYIQLVVENKDNGGTTTFQWDRGHLFDRLSVLTFYETCIETAGNVAQVVDLKSKPTTKYRPLPLTTVELQKNCARYLRLNAKQSLDAAEKLYQKGFISYPRTETDTFPHAMDLKSLVEKQAQLDQLAAGGRTAWASYAASLLQPENTSNNNKFKFPRSGSHDDKAHPPIHPIVSLGPEANVSPVERRVYEYVARHFLACCSEDAKGQSMTLVLDWAVERFSASGLVVLERNFLDVYPWARWETTKQLPRLEMNALVDIAKAEMKAGTTAPPKPMTESELILLMDTNGIGTDATIAEHIDKIQVRNYVRSEKVGKETYLQPTTLGVSLVHGFEAIGLEDSFAKPFQRREMEQDLKKICEGHASKTDVVKDIVEKYRKYWHKTNACKNTLLQVYDRVKASM | binding result [2]: binds
3 | 844 ± 148 nM |  | Top3/Rmi1 complex (as used in MST and XL-MS) (complex, S. cerevisiae, Top3 (type IA topoisomerase), S. cerevisiae, from SK1 strain genomic DNA; untagged; Rmi1, S. cerevisiae, from SK1 strain genomic DNA; The methods describe a GST-tagged and an untagged (3C protease cleaved) preparation; source: Hi5 insect cells (co-expressed from pBIG1a), purified) chain 1: MKVLCVAEKNSIAKAVSQILGGGRSTSRDSGYMYVKNYDFMFSGFPFARNGANCEVTMTSVAGHLTGIDFSHDSHGWGKCAIQELFDAPLNEIMNNNQKKIASNIKREARNADYLMIWTDCDREGEYIGWEIWQEAKRGNRLIQNDQVYRAVFSHLERQHILNAARNPSRLDMKSVHAVGTRIEIDLRAGVTFTRLLTETLRNKLRNQATMTKDGAKHRGGNKNDSQVVSYGTCQFPTLGFVVDRFERIRNFVPEEFWYIQLVVENKDNGGTTTFQWDRGHLFDRLSVLTFYETCIETAGNVAQVVDLKSKPTTKYRPLPLTTVELQKNCARYLRLNAKQSLDAAEKLYQKGFISYPRTETDTFPHAMDLKSLVEKQAQLDQLAAGGRTAWASYAASLLQPENTSNNNKFKFPRSGSHDDKAHPPIHPIVSLGPEANVSPVERRVYEYVARHFLACCSEDAKGQSMTLVLDWAVERFSASGLVVLERNFLDVYPWARWETTKQLPRLEMNALVDIAKAEMKAGTTAPPKPMTESELILLMDTNGIGTDATIAEHIDKIQVRNYVRSEKVGKETYLQPTTLGVSLVHGFEAIGLEDSFAKPFQRREMEQDLKKICEGHASKTDVVKDIVEKYRKYWHKTNACKNTLLQVYDRVKASM chain 2: MSFSSILSQDITDDITPPAYSATLGSREQIVFRAYQNEPWLAGTASNLILDKKLVIVDRELLFQVLMVENITKSKLTQIDDIKTKLDPKKQKVDRLRSGAQGNGAKKYEVITQVDMEDDGNVADNNCAKENNSNNNSSAAKNKAVFKLTLQSKSGDVFFAINSTPISWSSCMLGSKIVILPGTVFNRGVFILKDSQVIFLGGINRVWNENRDQKFCDYLESKLQRDKQLVNGGSKKRKAND | 
4 |  | binds | B1 | 
5 | 1990 nM and 1980 nM |  | Rmi1 (as used in MST and XL-MS) (natural protein, S. cerevisiae, UniProt Q02685 1-241, looked up, Rmi1, S. cerevisiae, from SK1 strain genomic DNA; The methods describe GST-Rmi1 and untagged (3C protease cleaved) Rmi1; also called Rmi1 alone; source: Hi5 insect cells, purified) MSFSSILSQDITDDITPPAYSATLGSREQIVFRAYQNEPWLAGTASNLILDKKLVIVDRELLFQVLMVENITKSKLTQIDDIKTKLDPKKQKVDRLRSGAQGNGAKKYEVITQVDMEDDGNVADNNCAKENNSNNNSSAAKNKAVFKLTLQSKSGDVFFAINSTPISWSSCMLGSKIVILPGTVFNRGVFILKDSQVIFLGGINRVWNENRDQKFCDYLESKLQRDKQLVNGGSKKRKAND | binding result [5]: binds
6 |  | binds | MBP-Mlh2 (chain of the MBP-Mlh1/MBP-Mlh2 complex) (natural protein, S. cerevisiae, UniProt Q07980 1-695, looked up, Mlh2, S. cerevisiae, from SK1 strain genomic DNA; Same chain as in m6; source: Hi5 insect cells (co-expressed with MBP-Mlh1), purified (MBP-trap, heparin, SEC); not shown: His6, N-terminal, kept; MBP, N-terminal, kept) MTIHQLSPESQWKIVSSSFIYGPVAAVRELLDNSIDSGAKKVFIDVDSTTGGCEYISVKDDGSGVDIIDRPSMCLEYTTSKMSSLGDISILTTLGFRGEALFLLSNLCNQKGSMQVETKTADDVIGEKWLVDSKGGITNGKRYKVSCPVGTTVILRKLLGGLRARYLEISSRPRKTFDELIYLINHYSLIHRNIRFYFSLVSLQKNGAIERKQMQETLDPKISRARSLSLLARLKKPVPLNFIVEENFVIDEKINLDLILPRMVPESDVINIKRRFKFLSVNERALSLNLETGKTISKLLSSIYRDFSLLDPMVWFINLNCDTKLLDVNIEPEKNDVMIKSFEVIFKKIENKLKLLLEERIGIETNMLGDKHVQPSINEKTSPALVIPTPDAENEISKGCGAVSGKDKTDIPQKNSDLIVPTFYDEANLENTTIVAATPSPTKFSEDKALDEQTQLTISSYRSSSSGSMASEDSTNWRHNFQQELSENSEVAGAGSSTLPSSLTYNYIETIPENEDLELSKDASISNPFMITKIRNVNKKLSENLLEAKRTSCGDANKRGMPNERQLSNTEKKELIKLQQTYGKRNNTVDMTIPRNSKKKVTDNYIKKASCMHKTRPKLMHFSEYTNNYVYTLKNEKIVKHDSDNFAKETLWLRSRDDATSPSSSLLQALRAHVKKPGHIEATTNEWCLFTPDSP | 

Source: article PMC10201424, “Biochemical characterisation of Mer3 helicase interactions and the protection of meiotic recombination intermediates” (Nucleic Acids Research, 2022)
